From patent US20200262867A1 (WNTRX PHARMACEUTICALS, published 2020)
Bridges are numbered along the chain shown (N, C = ends). Primed or numbered codes have the meaning given here. Where no end group is shown, it is not given here. Side-chain parts run from the residue outwards. [ ]: non-standard residue; d: D form. The star is where a group is joined. S5′ = (S)-2-(4'-pentenyl)alanine, olefinic stapling residue closed by ring-closing metathesis; NMeQ′ = N-methylglutamine (N-alpha-methyl, stereo named both D and L in the filing); PEG4″ = PEG4 (tetraethylene glycol) spacer; 2Nal = N[C@@H](Cc1ccc2ccccc2c1)C(=O)O; d2Nal = N[C@H](Cc1ccc2ccccc2c1)C(=O)O; NMeH = CN[C@@H](Cc1c[nH]cn1)C(=O)O; NMeR = CN[C@@H](CCCNC(=N)N)C(=O)O; Palmitoyl = CCCCCCCCCCCCCCCC(=O)*; hArg = N=C(N)NCCCC[C@H](N)C(=O)O; tBuAla = CC(C)(C)C[C@H](N)C(=O)O; NMeQ = CN[C@@H](CCC(N)=O)C(=O)O; Cha = N[C@@H](CC1CCCCC1)C(=O)O; Cit = NC(=O)NCCC[C@H](N)C(=O)O; Cba = N[C@@H](CC1CCC1)C(=O)O; S5 = C=CCCC[C@](C)(N)C(=O)O; Nle = CCCC[C@H](N)C(=O)O; βAla = NCCC(=O)O

T1: β-catenin (UniProt P35222 1-781, limits assumed)
T1 construct: also called beta-catenin
T1 sequence (looked up): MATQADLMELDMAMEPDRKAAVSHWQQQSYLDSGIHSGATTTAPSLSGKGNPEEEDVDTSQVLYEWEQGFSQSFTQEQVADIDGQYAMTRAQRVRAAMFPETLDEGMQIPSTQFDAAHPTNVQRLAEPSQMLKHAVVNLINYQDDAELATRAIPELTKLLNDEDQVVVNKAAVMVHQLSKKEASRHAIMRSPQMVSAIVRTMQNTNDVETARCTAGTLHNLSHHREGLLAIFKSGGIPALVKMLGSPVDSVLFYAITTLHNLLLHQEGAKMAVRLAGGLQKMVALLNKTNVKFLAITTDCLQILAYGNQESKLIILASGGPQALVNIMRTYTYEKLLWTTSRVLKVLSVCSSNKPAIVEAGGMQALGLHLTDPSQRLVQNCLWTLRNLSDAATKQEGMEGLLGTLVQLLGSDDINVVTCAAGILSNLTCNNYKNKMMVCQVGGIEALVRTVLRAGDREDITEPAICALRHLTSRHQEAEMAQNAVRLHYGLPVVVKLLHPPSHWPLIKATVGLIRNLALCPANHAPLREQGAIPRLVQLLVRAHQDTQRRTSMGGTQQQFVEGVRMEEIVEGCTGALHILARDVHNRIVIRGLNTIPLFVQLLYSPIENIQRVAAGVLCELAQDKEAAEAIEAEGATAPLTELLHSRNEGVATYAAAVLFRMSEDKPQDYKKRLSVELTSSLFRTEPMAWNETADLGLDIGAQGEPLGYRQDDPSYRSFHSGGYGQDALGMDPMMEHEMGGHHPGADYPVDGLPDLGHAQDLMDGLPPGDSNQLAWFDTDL

B1: SEQ ID NO: 8 (peptide)
peptide: Ac-QLEHRERSLQTLR[S5]IQR[S5]L[2Nal]-NH2
modifications: staple 14-18; not fully specified; printed as QLEHRERSLQTLRXIQRXL(2-Nal)
B2: SEQ ID NO: 58 (peptide)
peptide: RSLQTLR[Nle]IQR[Nle]L[2Nal]
B3: SEQ ID NO: 191 (peptide)
peptide: Ac-HRQRSLQTLR[S5]IQR[S5][tBuAla][2Nal]-NH2
modifications: staple 11-15
SMILES: CC[C@H](C)[C@@H]1NC(=O)[C@@](C)(NC(=O)[C@H](CCCNC(=N)N)NC(=O)[C@H](CC(C)C)NC(=O)[C@@H](NC(=O)[C@H](CCC(N)=O)NC(=O)[C@H](CC(C)C)NC(=O)[C@H](CO)NC(=O)[C@H](CCCNC(=N)N)NC(=O)[C@H](CCC(N)=O)NC(=O)[C@H](CCCNC(=N)N)NC(=O)[C@H](Cc2c[nH]cn2)NC(C)=O)[C@@H](C)O)CCCC=CCCC[C@@](C)(C(=O)N[C@@H](CC(C)(C)C)C(=O)N[C@@H](Cc2ccc3ccccc3c2)C(N)=O)NC(=O)[C@H](CCCNC(=N)N)NC(=O)[C@H](CCC(N)=O)NC1=O
B4: SEQ ID NO: 213 (peptide)
peptide: {Palmitoyl-PEG4″}-L[NMeQ′]TLR[S5]IQR[S5][Cba][2Nal]-NH2
modifications: staple 6-10; also: Q2 N-methyl: stated both D and L
B5: SEQ ID NO: 189 (peptide)
peptide: Ac-HRQRSLQTL[NMeR][S5]IQR[S5][Cha][2Nal]-NH2
modifications: staple 11-15
SMILES: CC[C@H](C)[C@@H]1NC(=O)[C@@](C)(NC(=O)[C@H](CCCNC(=N)N)N(C)C(=O)[C@H](CC(C)C)NC(=O)[C@@H](NC(=O)[C@H](CCC(N)=O)NC(=O)[C@H](CC(C)C)NC(=O)[C@H](CO)NC(=O)[C@H](CCCNC(=N)N)NC(=O)[C@H](CCC(N)=O)NC(=O)[C@H](CCCNC(=N)N)NC(=O)[C@H](Cc2c[nH]cn2)NC(C)=O)[C@@H](C)O)CCCC=CCCC[C@@](C)(C(=O)N[C@@H](CC2CCCCC2)C(=O)N[C@@H](Cc2ccc3ccccc3c2)C(N)=O)NC(=O)[C@H](CCCNC(=N)N)NC(=O)[C@H](CCC(N)=O)NC1=O
B6: SEQ ID NO: 7 (peptide)
peptide: Ac-EHRERSLQTLR[S5]IQR[S5]L[2Nal]-NH2
modifications: staple 12-16; not fully specified; printed as EHRERSLQTLRXIQRXL(2-Nal)
B7: SEQ ID NO: 12 (peptide)
peptide: Ac-EHQERSLQTLR[S5]IQR[S5]L[2Nal]-NH2
modifications: staple 12-16; not fully specified; printed as EHQERSLQTLRXIQRXL(2-Nal)
B8: SEQ ID NO: 9 (peptide)
peptide: Ac-EHRERSLQTLR[S5′]IQR[S5′][Cba][2Nal]-NH2
modifications: staple 12-16; not fully specified; printed as EHRERSLQTLRXIQRX(CBA)(2-Nal)
B9: SEQ ID NO: 222 (peptide)
peptide: Ac-H[hArg]QRSLQTLR[S5]IQ[Cit][S5][Cha][2Nal]-NH2
modifications: staple 11-15
SMILES: CC[C@H](C)[C@@H]1NC(=O)[C@@](C)(NC(=O)[C@H](CCCNC(=N)N)NC(=O)[C@H](CC(C)C)NC(=O)[C@@H](NC(=O)[C@H](CCC(N)=O)NC(=O)[C@H](CC(C)C)NC(=O)[C@H](CO)NC(=O)[C@H](CCCNC(=N)N)NC(=O)[C@H](CCC(N)=O)NC(=O)[C@H](CCCCNC(=N)N)NC(=O)[C@H](Cc2c[nH]cn2)NC(C)=O)[C@@H](C)O)CCCC=CCCC[C@@](C)(C(=O)N[C@@H](CC2CCCCC2)C(=O)N[C@@H](Cc2ccc3ccccc3c2)C(N)=O)NC(=O)[C@H](CCCNC(N)=O)NC(=O)[C@H](CCC(N)=O)NC1=O
B10: SEQ ID NO: 209 (peptide)
peptide: {Palmitoyl-PEG4″}-H[hArg]QRSLQTLR[S5]IQR[S5][Cha][2Nal]-NH2
modifications: staple 11-15
B11: SEQ ID NO: 164 (peptide)
peptide: HRQRSLQTLR[S5]IQ[NMeR][S5][Cba][2Nal]
modifications: staple 11-15; not fully specified (residues 3, 7, N-terminus, C-terminus); printed as HR(N-methylQ)RSL(N-methylQ)TLRXIQ(N-methylR)X(CBA)(2-Nal), X/X stapled, (S) α-methyl, N-terminal Ac, C-terminal NH2
B12: SEQ ID NO: 160 (peptide)
peptide: {Palmitoyl-PEG4″}-HRQRSLQTLR[S5]IQR[S5][Cba][2Nal]-NH2
modifications: staple 11-15
B13: SEQ ID NO: 193 (peptide)
peptide: Ac-HR[NMeQ]RSLQTLR[S5]IQR[S5][tBuAla][2Nal]-NH2
modifications: staple 11-15; also: N-methylglutamine 3: D or L (filing names both)
B14: SEQ ID NO: 188 (peptide)
peptide: Ac-HRQRSLQTLR[S5]IQR[S5][Cha][d2Nal]-NH2
modifications: staple 11-15
SMILES: CC[C@H](C)[C@@H]1NC(=O)[C@@](C)(NC(=O)[C@H](CCCNC(=N)N)NC(=O)[C@H](CC(C)C)NC(=O)[C@@H](NC(=O)[C@H](CCC(N)=O)NC(=O)[C@H](CC(C)C)NC(=O)[C@H](CO)NC(=O)[C@H](CCCNC(=N)N)NC(=O)[C@H](CCC(N)=O)NC(=O)[C@H](CCCNC(=N)N)NC(=O)[C@H](Cc2c[nH]cn2)NC(C)=O)[C@@H](C)O)CCCC=CCCC[C@@](C)(C(=O)N[C@@H](CC2CCCCC2)C(=O)N[C@H](Cc2ccc3ccccc3c2)C(N)=O)NC(=O)[C@H](CCCNC(=N)N)NC(=O)[C@H](CCC(N)=O)NC1=O
B15: SEQ ID NO: 223 (peptide)
peptide: HRQRSLQTLXXIQRXAA
modifications: H(homoArg)QRSLQTL(Cit)XIQRX(Cha)(2-Nal); X/X stapled, (S) α-methyl; N-terminal Ac; C-terminal NH2
B16: SEQ ID NO: 215 (peptide)
peptide: Ac-[NMeH]RQRSLQTLR[S5]IQR[S5][Cha][2Nal]-NH2
modifications: staple 11-15
SMILES: CC[C@H](C)[C@@H]1NC(=O)[C@@](C)(NC(=O)[C@H](CCCNC(=N)N)NC(=O)[C@H](CC(C)C)NC(=O)[C@@H](NC(=O)[C@H](CCC(N)=O)NC(=O)[C@H](CC(C)C)NC(=O)[C@H](CO)NC(=O)[C@H](CCCNC(=N)N)NC(=O)[C@H](CCC(N)=O)NC(=O)[C@H](CCCNC(=N)N)NC(=O)[C@H](Cc2c[nH]cn2)N(C)C(C)=O)[C@@H](C)O)CCCC=CCCC[C@@](C)(C(=O)N[C@@H](CC2CCCCC2)C(=O)N[C@@H](Cc2ccc3ccccc3c2)C(N)=O)NC(=O)[C@H](CCCNC(=N)N)NC(=O)[C@H](CCC(N)=O)NC1=O
B17: SEQ ID NO: 57 (peptide)
peptide: RSLQTLRDIQRML[2Nal]
B18: SEQ ID NO: 36 (peptide)
peptide: Ac-QLEHRERSL[S5]TLR[S5]IQRML[2Nal]-NH2
modifications: staple 10-14; not fully specified; printed as QLEHRERSLXTLRXIQRML(2-Nal)
B19: SEQ ID NO: 190 (peptide)
peptide: Ac-HRQRSLQTLR[S5]IQ[NMeR][S5][Cha][2Nal]-NH2
modifications: staple 11-15
SMILES: CC[C@H](C)[C@@H]1NC(=O)[C@@](C)(NC(=O)[C@H](CCCNC(=N)N)NC(=O)[C@H](CC(C)C)NC(=O)[C@@H](NC(=O)[C@H](CCC(N)=O)NC(=O)[C@H](CC(C)C)NC(=O)[C@H](CO)NC(=O)[C@H](CCCNC(=N)N)NC(=O)[C@H](CCC(N)=O)NC(=O)[C@H](CCCNC(=N)N)NC(=O)[C@H](Cc2c[nH]cn2)NC(C)=O)[C@@H](C)O)CCCC=CCCC[C@@](C)(C(=O)N[C@@H](CC2CCCCC2)C(=O)N[C@@H](Cc2ccc3ccccc3c2)C(N)=O)NC(=O)[C@H](CCCNC(=N)N)N(C)C(=O)[C@H](CCC(N)=O)NC1=O
B20: SEQ ID NO: 56 (peptide)
peptide: LQTLR[Nle]IQR[Nle]L[2Nal]P
B21: SEQ ID NO: 161 (peptide)
peptide: Ac-HRQRSLQTLR[S5]IQR[S5][Cba][2Nal]K([PEG4″-Palmitoyl])-NH2
modifications: staple 11-15
B22: SEQ ID NO: 55 (peptide)
peptide: LQTLRDIQRML[2Nal]P
B23: SEQ ID NO: 59 (peptide)
peptide: RERSLQTLRDIQRML[2Nal]
B24: SEQ ID NO: 49 (peptide)
peptide: LR[Nle]IQR[Nle]L[2Nal][βAla][βAla]
B25: SEQ ID NO: 207 (peptide)
peptide: {Palmitoyl-PEG4″}-HR[NMeQ′]RSL[NMeQ′]TLR[S5]IQR[S5][Cha][2Nal]-NH2
modifications: staple 11-15; not fully specified

Each binder was assayed against T1, β-catenin (assay: ALPHA Screen (BCL9/β-catenin);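 further: bead proximity readout with the polypeptide linked to donor beads and β-catenin fixed on acceptor beads, their binding bringing the beads close enough to emit signal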).
Source text: In this assay, a polypeptide is conjugated to a donor bead and its target protein (i.e., β-catenin) is attached to an acceptor bead. When the two beads are in proximity due to the binding of the polypeptide to the target protein, a signal is generated and the binding affinity of the polypeptide can be quantitatively calculated. The assay may be conducted in the presence or absence of an unconjugated control polypeptide.

Row | IC50 | Binder
1 | 770 nM | B1
2 | 2840 nM | B2
3 | 322 nM | B3
4 | 466 nM | B4
5 | 247 nM | B5
6 | 810 nM | B6
7 | 4160 nM | B7
8 | 1500 nM | B8
9 | 742 nM | B9
10 | 253 nM | B10
11 | 1480 nM | B11
12 | 361 nM | B12
13 | 323 nM | B13
14 | 387 nM | B14
15 | 573 nM | B15
16 | 9520 nM | B16
17 | 13600 nM | B17
18 | 940 nM | B18
19 | 271 nM | B19
20 | 10100 nM | B20
21 | 791 nM | B21
22 | 30300 nM | B22
23 | 5950 nM | B23
24 | 6710 nM | B24
25 | 354 nM | B25
